Test results: patent US20140170239A1 (VRIJE UNIVERSITEIT BRUSSEL, published 2014)
Where no end group is shown, it is not given here.

B1: FLAG-tagged Cyclin-I2 (other, human, UniProt Q6ZMN8 1-369, looked up)
chain: MASGAQLPPQPSSSEVSAVQSPGGRPGAGLEETALGVPLPPSPGEAPLPRSNRSRCPGTRQPGAASLHAASAAVPVRPRRGTAPAGKTADAVPAAAPEQAPRPAPQSRKPRNLEGDLDERRLLCHLQLAQDREARLWRGGKPQDEICDAFEEVVLWLLRLQNTFYFSQSTFNLALTIFGRLLISVKVKEKYLHCATITSLRLAAKVNEEEEFIPQVKDFTKHYGSDYSPNELLRMELAILDRLHWDLYIGTPLDFLTIFHALVVLSWPHVLELLPQRNPSLHVASLTRQLQHCMAGHQLLQFKGSTLALVIITLELERLMPGWCAPISDLLKKAQVGDMQYSCCKELVMQQLRSLQSSSCTDNFVSPAN
notes: also called CCNI2_HUMAN; CCNI2
B2: DHX33_HUMAN peptide ILTIVSL (peptide)
peptide: ILTIVSL
notes: spot-synthesized on membrane; also called position Nr 4
B3: ANXA6_HUMAN peptide ILDIITS (peptide)
peptide: ILDIITS
notes: spot-synthesized on membrane; also called annexin-6 peptide fragment; position Nr 29
B4: SPEF2_HUMAN peptide ILSIDTL (peptide)
peptide: ILSIDTL
notes: spot-synthesized on membrane; also called position Nr 54
B5: CPNE2_HUMAN peptide ILLIITD (peptide)
peptide: ILLIITD
notes: spot-synthesized on membrane; also called Copine-2 (CPNE2) segment; position Nr 42
B6: CASP8_HUMAN peptide ILTILTE (peptide)
peptide: ILTILTE
notes: spot-synthesized on membrane; also called caspase-8 (CASP8) segment; position Nr 11
B7: CC132_HUMAN peptide ILTNTTL (peptide)
peptide: ILTNTTL
notes: spot-synthesized on membrane; also called position Nr 21
B8: P73_HUMAN peptide ILIIITL (peptide)
peptide: ILIIITL
notes: spot-synthesized on membrane; also called p73β; position Nr 35
B9: P63_HUMAN peptide ILIIVTL (peptide)
peptide: ILIIVTL
notes: spot-synthesized on membrane; also called p63β; position Nr 16
B10: METH_HUMAN peptide ILTIGTG (peptide)
peptide: ILTIGTG
notes: spot-synthesized on membrane; also called methionine synthase (METH) segment; position Nr 38
B11: TAGAP_HUMAN peptide ILTILCL (peptide)
peptide: ILTILCL
notes: spot-synthesized on membrane; also called position Nr 5
B12: CCNI2_HUMAN peptide ALVIITL (peptide)
peptide: ALVIITL
notes: spot-synthesized on membrane; also called position Nr 23
B13: RTEL1_HUMAN peptide ILTSGTL (peptide)
peptide: ILTSGTL
notes: spot-synthesized on membrane; also called position Nr 36
B14: DIP2B_HUMAN peptide ILTSQTL (peptide)
peptide: ILTSQTL
notes: spot-synthesized on membrane; also called position Nr 20
B15: DYH3_HUMAN peptide ILTFKTL (peptide)
peptide: ILTFKTL
notes: spot-synthesized on membrane; also called position Nr 12
B16: CGRF1_HUMAN peptide ITTGITL (peptide)
peptide: ITTGITL
notes: spot-synthesized on membrane; also called CGRF1 segment; position Nr 30
B17: VATA_HUMAN peptide IYTGITL (peptide)
peptide: IYTGITL
notes: spot-synthesized on membrane; also called position Nr 14
B18: CD041_HUMAN peptide ITTVITL (peptide)
peptide: ITTVITL
notes: spot-synthesized on membrane; also called position Nr 8
B19: MP2K4_HUMAN peptide ILGKITL (peptide)
peptide: ILGKITL
notes: spot-synthesized on membrane; also called position Nr 17
B20: CXL11_HUMAN peptide IEVIITL (peptide)
peptide: IEVIITL
notes: spot-synthesized on membrane; also called position Nr 32
B21: KLH32_HUMAN peptide ILCDITL (peptide)
peptide: ILCDITL
notes: spot-synthesized on membrane; also called position Nr 43
B22: KV122_HUMAN peptide ILTISSL (peptide)
peptide: ILTISSL
notes: spot-synthesized on membrane; also called position Nr 22
B23: SCC4_HUMAN peptide IQTISTL (peptide)
peptide: IQTISTL
notes: spot-synthesized on membrane; also called position Nr 55
B24: PRA10_HUMAN peptide FLTIFTL (peptide)
peptide: FLTIFTL
notes: spot-synthesized on membrane; also called position Nr 25
B25: DHX29_HUMAN peptide ILQIITE (peptide)
peptide: ILQIITE
notes: spot-synthesized on membrane; also called position Nr 44
B26: CM031_HUMAN peptide KLTIITS (peptide)
peptide: KLTIITS
notes: spot-synthesized on membrane; also called position Nr 53
B27: PDS5A_HUMAN peptide IVTIITA (peptide)
peptide: IVTIITA
notes: spot-synthesized on membrane; also called position Nr 3
B28: ZN830_HUMAN peptide ILTIKEL (peptide)
peptide: ILTIKEL
notes: spot-synthesized on membrane; also called position Nr 31
B29: KV117_HUMAN peptide TLTISTL (peptide)
peptide: TLTISTL
notes: spot-synthesized on membrane; also called position Nr 15
B30: BPTF_HUMAN peptide VLTISTL (peptide)
peptide: VLTISTL
notes: spot-synthesized on membrane; also called position Nr 10
B31: CT132_HUMAN peptide IKSIITL (peptide)
peptide: IKSIITL
notes: spot-synthesized on membrane; also called position Nr 45
B32: CBPC3_HUMAN peptide ILTITTP (peptide)
peptide: ILTITTP
notes: spot-synthesized on membrane; also called position Nr 39
B33: SMG1_HUMAN peptide ILTLIEL (peptide)
peptide: ILTLIEL
notes: spot-synthesized on membrane; also called position Nr 41
B34: LONF2_HUMAN peptide ILVIITR (peptide)
peptide: ILVIITR
notes: spot-synthesized on membrane; also called position Nr 48
B35: GCDH_HUMAN peptide MLTEITL (peptide)
peptide: MLTEITL
notes: spot-synthesized on membrane; also called position Nr 19
B36: CYTIP_HUMAN peptide LLTIETL (peptide)
peptide: LLTIETL
notes: spot-synthesized on membrane; also called position Nr 24
B37: TRI18_HUMAN peptide CLTIITG (peptide)
peptide: CLTIITG
notes: spot-synthesized on membrane; also called position Nr 26
B38: BN3D2_HUMAN peptide ALTFITL (peptide)
peptide: ALTFITL
notes: spot-synthesized on membrane; also called position Nr 7
B39: NOL11_HUMAN peptide ILTKYTL (peptide)
peptide: ILTKYTL
notes: spot-synthesized on membrane; also called position Nr 37
B40: CND2_HUMAN peptide ILTKSTL (peptide)
peptide: ILTKSTL
notes: spot-synthesized on membrane; also called position Nr 51
B41: MYST3_HUMAN peptide ILTKPTL (peptide)
peptide: ILTKPTL
notes: spot-synthesized on membrane; also called position Nr 28
B42: P53_HUMAN peptide ILTIITL (immobilised spot) (peptide)
peptide: ILTIITL
notes: spot-synthesized on membrane; also called p53β; position Nr 1
B43: PGTA_HUMAN peptide LLTIILL (peptide)
peptide: LLTIILL
notes: spot-synthesized on membrane; also called position Nr 9
B44: EPMIP_HUMAN peptide LLTIINL (peptide)
peptide: LLTIINL
notes: spot-synthesized on membrane; also called position Nr 6
B45: BCL6B_HUMAN peptide ILTDVTL (peptide)
peptide: ILTDVTL
notes: spot-synthesized on membrane; also called position Nr 40
B46: PK3C3_HUMAN peptide ILQIISL (peptide)
peptide: ILQIISL
notes: spot-synthesized on membrane; also called position Nr 18
B47: HEAT1_HUMAN peptide ILTKISL (peptide)
peptide: ILTKISL
notes: spot-synthesized on membrane; also called position Nr 13
B48: MX2_HUMAN peptide DLTIIDL (peptide)
peptide: DLTIIDL
notes: spot-synthesized on membrane; also called position Nr 50
B49: PTPC1_HUMAN peptide IKTIINL (peptide)
peptide: IKTIINL
notes: spot-synthesized on membrane; also called position Nr 33
B50: RFC5_HUMAN peptide ILTEIHL (peptide)
peptide: ILTEIHL
notes: spot-synthesized on membrane; also called position Nr 34
B51: LRC40_HUMAN peptide IHAIITL (peptide)
peptide: IHAIITL
notes: spot-synthesized on membrane; also called position Nr 27
B52: AL2SA_HUMAN peptide GLTIPTL (peptide)
peptide: GLTIPTL
notes: spot-synthesized on membrane; also called position Nr 52
B53: TAF4B_HUMAN peptide ILKQITL (peptide)
peptide: ILKQITL
notes: spot-synthesized on membrane; also called position Nr 49
B54: CD2A1_HUMAN peptide ILRQITL (peptide)
peptide: ILRQITL
notes: spot-synthesized on membrane; also called position Nr 56
B55: BPA1_HUMAN peptide ILKNITL (peptide)
peptide: ILKNITL
notes: spot-synthesized on membrane; also called position Nr 46
B56: RTTN_HUMAN peptide ILTICTK (peptide)
peptide: ILTICTK
notes: spot-synthesized on membrane; also called position Nr 47
B57: Control peptide RRPILTIITLEDGS (peptide)
peptide: RRPILTIITLEDGS
notes: spot-synthesized on membrane; longer peptide that holds ILTIITL; also called position Nr 2

What follows are binders tested against T1, HA-tagged wild-type p53 (human, UniProt P04637 1-393) (assay: co-IP, HeLa cells, anti-FLAG IP, anti-HA blot).
T1 construct: range 1-393; expressed in cells, tested in cell lysate; also called WT p53; p53-HA
Description: HeLa (Human epithelial carcinoma) cells were cultured in DMEM supplemented with 10% fetal calf serum (Gibco), L-glutamine (4 mM), penicillin (100 U/ml), and streptomycin (100 U/ml). Proliferating cell cultures were maintained in a 5% CO2-humidified incubator at 37° C. […] The complex of DNA and FuGENE HD was prepared in 500 μL DMEM and incubated for 20 minutes before adding to cells. For stable transfection, DMEM medium containing 10% fetal calf serum and 500 μg/mL G418 was used to select colonies that carried the transfected vector for six weeks, and expression of the vector was validated by Western blot. Stably transfected cells were maintained in medium containing 250 μg/mL G418 for further analysis. Transfection of siRNA for p53 (Santa Cruz) was performed using X-tremeGENE siRNA transfection reagent (Roche) according to the manufacturer's instructions.
Hela cells co-transfected with mutant HA-p53 and FLAG-tagged proteins were lysed with RIPA buffer (Thermo) with DNase and protease inhibitors (Roche) for 30 minutes on ice. […] After incubation at 21° C. for 1 hour, the agarose beads were rinsed with 200 μL TBS three times, and subsequently eluted by heating at 95° C. in presence of SDS (without DTT). The co-immunoprecipitated p53 was detected with mouse anti-HA antibody or anti-p53.

| Binder | binding result |
| --- | --- |
| B1 | no binding |

Biological target: T2, biotinylated p53β peptide (human, also: biotinylated, site not given here)
T2 construct: also called biotinylated p53-aggregating peptide
T2 peptide: ILTIITL
Test: peptide-binding assay: peptide spots on membrane, biotinylated p53β peptide, streptavidin-HRP;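 for Binding intensity (normalized): Membrane-bound synthesized peptide spots exposed to the biotinylated p53 aggregation-prone peptide, bound material revealed via streptavidin-HRP and chemiluminescence, spot signal reflecting binding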

| Binder | Coaggregation (peptide binding) |
| --- | --- |
| B2 | 10.2% |
| B3 | 78.9% |
| B4 | 79.6% |
| B5 | 111% |
| B6 | 11.4% |
| B7 | 77% |
| B8 | 99% |
| B9 | 92% |
| B10 | 49.2% |
| B11 | 4.8% |
| B12 | 43.4% |

Biological target: T2, biotinylated p53β peptide
Test: as above
Remark: another data set of the same source
Description: Subsequently, the ability of the selected peptides to interact with p53β using an in vitro peptide-binding assay was empirically determined. Therefore, the 56 selected peptides were spot-synthesized on a cellulose membrane, which was subsequently incubated with biotinylated p53β peptide (FIG. 17, panel b). After washing, the membrane was treated with streptavidine-HRP to detect p53β binding (FIG. 17, panel c).
Peptides of selected sequences were spot synthesized on PVDF membrane (PepSpot, JPT). The membranes were blocked by 1% BSA in phosphate-buffered saline for 1 hour at room temperature, and then incubated with biotinylated peptide containing the p53-aggregating sequence for 1 hour. After rinsing with 0.1% TWEEN® 20 in 25 mM MES buffer pH 7.0, membranes were incubated in HRP-labeled Streptavidin (Thermo) and visualized with electrochemical luminescence (ECL) system.

| Binder | Binding intensity (normalized) |
| --- | --- |
| B13 | 17.3 normalized |
| B14 | 2.39 normalized |
| B15 | 6.2 normalized |
| B16 | 36.7 normalized |
| B17 | 32.1 normalized |
| B18 | 5.27 normalized |
| B19 | 16.9 normalized |
| B20 | 8.54 normalized |
| B21 | 7.89 normalized |
| B22 | 23.8 normalized |
| B2 | 10.2 normalized |
| B23 | 7.06 normalized |
| B24 | 26.4 normalized |
| B25 | 15.6 normalized |
| B3 | 78.9 normalized |
| B26 | 17.9 normalized |
| B4 | 79.6 normalized |
| B5 | 111 normalized |
| B6 | 11.4 normalized |

| Binder | Binding intensity (normalized) |
| --- | --- |
| B27 | 17.2 normalized |
| B28 | 14.1 normalized |
| B29 | 10.2 normalized |
| B30 | 6.72 normalized |
| B31 | 4.39 normalized |
| B32 | 19.6 normalized |
| B33 | 9.77 normalized |
| B7 | 77 normalized |
| B34 | 6.81 normalized |
| B35 | 3.03 normalized |
| B36 | 26.6 normalized |
| B37 | 3.67 normalized |
| B38 | 6.47 normalized |
| B39 | 33.3 normalized |
| B40 | 17.9 normalized |
| B41 | 16.1 normalized |
| B8 | 99 normalized |
| B9 | 92 normalized |
| B42 | 100 normalized |

| Binder | Binding intensity (normalized) |
| --- | --- |
| B43 | 3.95 normalized |
| B44 | 1.55 normalized |
| B45 | 5.88 normalized |
| B46 | 26.3 normalized |
| B47 | 8.65 normalized |
| B48 | 40.2 normalized |
| B49 | 9.72 normalized |
| B50 | 12.9 normalized |
| B51 | 8.22 normalized |
| B10 | 49.2 normalized |
| B52 | 10.9 normalized |
| B53 | 19.8 normalized |
| B54 | 14.7 normalized |
| B55 | 12.1 normalized |
| B56 | 6.48 normalized |
| B11 | 4.81 normalized |
| B57 | 30.9 normalized |
| B12 | 43.4 normalized |
